Reference: US20200323902
Positions count from the first letter of the chain named.

Key:
Assay in all cases: cell_activity
[1] = test system: T1, TcBuster D189A/V377T/E469K (Tribolium castaneum); conditions: primary human CD3+ T cells, mean; nearly 2-fold over WT at day 14; unit inferred from figure legend
T1 sequence: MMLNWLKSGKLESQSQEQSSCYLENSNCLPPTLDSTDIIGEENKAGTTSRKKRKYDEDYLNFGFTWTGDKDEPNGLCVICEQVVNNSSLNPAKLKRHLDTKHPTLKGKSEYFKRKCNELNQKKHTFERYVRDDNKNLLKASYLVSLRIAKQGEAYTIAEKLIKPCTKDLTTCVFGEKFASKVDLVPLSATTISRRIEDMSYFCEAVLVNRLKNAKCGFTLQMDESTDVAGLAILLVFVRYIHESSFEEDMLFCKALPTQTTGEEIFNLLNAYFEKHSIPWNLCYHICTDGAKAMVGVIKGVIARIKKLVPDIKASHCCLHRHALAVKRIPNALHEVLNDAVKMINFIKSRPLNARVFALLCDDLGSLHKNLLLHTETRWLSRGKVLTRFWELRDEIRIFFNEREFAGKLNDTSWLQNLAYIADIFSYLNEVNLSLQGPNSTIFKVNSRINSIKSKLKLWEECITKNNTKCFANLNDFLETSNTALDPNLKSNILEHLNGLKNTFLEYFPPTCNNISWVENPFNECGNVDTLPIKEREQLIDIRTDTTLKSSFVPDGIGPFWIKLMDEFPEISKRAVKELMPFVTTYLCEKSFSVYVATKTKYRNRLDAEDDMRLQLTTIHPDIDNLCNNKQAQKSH

[2] = test system: T2, TcBuster V377T/E469K V377T,E469K (Tribolium castaneum); conditions: primary human CD3+ T cells, mean; nearly 2-fold over WT at day 14; unit inferred from figure legend
T2 sequence: T1 sequence with A189D

[3] = test system: Sleeping Beauty transposase SB11 (synthetic); conditions: primary human CD3+ T cells, mean; unit inferred from figure legend

## mini-circle transposon with TcBuster and Sleeping Beauty IR/DRs, GFP cargo
[1]
  activity: 24.1 % GFP+ cells
[2]
  activity: 20.2 % GFP+ cells
[3]
  activity: 8.4 % GFP+ cells
